experiment: soluble on expression in E. coli; label from the status in PepcDB or PDB records

| Sequence | soluble on expression in E. coli |
| --- | --- |
| SLKNRRVGKKLLMTGGGRCNVTNNRPAEEIISFIPGNGKFLYSAFSQFDNYDIMNFFESNGIHLKEEDHGRMFPVTDKSKSIVDALFNRINELGVTVFTKTQVTKLLRKDDQIIGVETELEKIYAPCVVLTTGGRTYPSTGATGDGYKLAKKMGHTISPLYPTESPIISEEPFILDKTLQGLSLQDVNLTVLNQKGKPLVNHQMDMLFTHFGISGPAALRCSSFINQELTRNGNQPVTVALDVFPTKSFEEVPAKQLTEKQRLSFVELLKDFQFTVTKTLPLEKSFVTGGGISLKEVTPKTMESKLVNGLFFAGELLDINGYTGGYNVTAAFVTGHVAGSHAAEIAEYTYLPIEEV | soluble |
| MVEVRYLGHSAVLLTDGKTRIVIDPFLTGNPMAALGVGEVQADLILVTHAHGDHFGDSVALSKKGGVVVSTFEIATYAEKHGAKSVPMNLGGTYRFEGGWLKWVPAWHSSSFPDGTYGGMPMGVVVELGGKRIYHAGDTALFSDMRLIGEMGLDLALLPIGDHFTMGPEDALKALELLRPKKVVPIHYNTFPPIRQDGEAFAQRAREKGVEGHALKPGEVLRLD | soluble |
| GPGSMPPKKKVERKEEQVFVEENGSYVHQREMARYTGGVRRLTDSNFCCRHGQGTYSSPLIHYEGNWSEDEMHGNGTLRFLVSGDSYTGQFVHGVMEGCGTYIWASGAMYDGGWRGNRMHGLGTYTDVGGKVWSGKFYNGSGPGLTPCVTTGGGVAAADKRDVLKDEKEG | not soluble |
| MEWKDIKGYEGHYQVSNTGEVYSIKSGKTLKHQIPKDGYHRIGLFKGGKGKTFQVHRLVAIHFCEGYEEGLVVDHKDGNKDNNLSTNLRWVTQKINVENQMSRGTLNVSKAQQIAKIKNQKPIIVISPDGIEKEYPSTKCACEELGLTRGKVTDVLKGHRIHHKGYTFRYKLNG | soluble |
| MALKNNTLWTGPKPEANCIIEYGKQNPDSKLTLILVKNGGIVNGYVTLMGASDYVNTLFKNKNVSINVELYFDATGHILPDSSSLKTDLELKYKQTADFSARGFMPSTTAYPFVLPNAGTHNENYIFGQCYYKASDGALFPLEVTVMLNKRLPDSRTSYVMTFLWSLNAGLAPETTQATLITSPFTFSYIREDD | soluble |
| SGGAVSAGEDNDELIDNLKEAQYIRTELVEQAFRAIDRADYYLEEFKENAYKDLAWKHGNIHLSAPCIYSEVMEALDLQPGLSFLNLGSGTGYLSSMVGLILGPFGVNHGVELHSDVIEYAKQKLDFFIRTSDSFDKFDFCEPSFVTGNCLEISPDCSQYDRVYCGAGVQKEHEEYMKNLLKVGGILVMPLEEKLTKITRTGPSAWETKKILAVSFAPLIQPCHSESGKSRLVQLRSPSFVQGWSVVVLSQLTAASTFQAEAILPSQSPTWLRLQVLATMPN | not soluble |
| MSWWQRAVIYQVYPRSFQDTNGDGVGDLEGIRRRLPYLKSLGVDALWLSPFYKSPMKDFGYDVADYCDVDPVFGTLQDFDRLLEEAHALGLKVLVDLVPNHTSSEHPWFLESRASRNSPKRDWYIWKDPAPDGGPPNNWQSFFGGPAWTLDEATGQYYLHLFLPEQPDLNWRNPEVREAIKEVMRFWLRRGVDGFRVDVLWLLGKDPLFRDEPGSPLWRPGLPDRARHEHLYTEDQPETYAYVREMRQVLDEFSEPGRERVMVGEIYLPLPRLVRYYAAGCHLPFNFSLVTEGLSDWRPENLARIVETYEGLLSRWDWPNWVLGNHDQPRLASRLGEPQARVAAMLLFTLRGTPTWYYGDELALPNGLIPPEKVQDPAALRQRDREPTAYHTLGRDPERTPMPWDASPYGGFSTVEPWLPLNPDYRTRNVAAQEKDPRSMLHLVKRLIALRKDPDLLYGAYRTYRAREGVYAYLRGEGWLVALNLTEKEKALELPRGGRVVLSTHLDREERVGERLFLRPDEGVAVRLD | soluble |
| MAKLLYVQTSGIDTPERLYAPFVLAMTAKAMGDDAIIYFVIKGVTVVKKDNAEKIKMGNFPPLSELMKQARESGVEMMVCDRSSELLGIDKGEIVDGVKIVGAATLNQLVLEADGVLYF | not soluble |
| MSGTKASVFSTILQLMNSLAIRAVADNVRRLLEARRLSQKELAALSGVSQKSINDLLNYGGTVSKEPRLGTIEKLAKGFGIATWQLQIPGLPVDLLQGQMVSKVIENFRDAGTVGRENISRVAESEVRYSLVQNSERGAPR | not soluble |
| MPPKKTQKSGLLQFFAKQQQEKYQNSSKNEETTEHDDSCQILFEKQVAGPSKVSKPIGFPTTPKNTTKWAETLQKSSEKAGRDWLNPFPIRVSSAKKEIEKNSKTELLAKGFDDIHGNGIFYPINEPIRNFELNLLKCLSSSNCCVALPSSSPSTPGRICAMTVFNFLKWFPRCRVLLVSSSDSWISSLRQLGLESQTTKLTTVTQFKNLKTEAGKILVCTTPQCALKVVESTGGREFLEEIRLVLMELKPNECCSKYKPILNALTVKETFFRCSVLTTSTSNASRRTASITKRQQMITNLQLSDWIEQTEADFAFRSANIPAGVEVKTWKSEDNSAKHAEITGKFEKYCEKTIDDLARQCIVSSKSVKKLIWTCWKTLKQQSKLPEIEKKKLEISEFLTCTYKLLIIDGVVAARNFVKKHSEIPHIKEHAEKILEPTIFGGFSEFPAKFQQLSDSIEAFLKMDNHVLGVILCRDSDQAIEIQNYLELQLTTRCTCVRIIEEGTHPGRNLWNIQRISTVFIDRKSPKIVILPVKIRDFIGFSDGLPLSELTFIASISRDSLFNFRRFGGAHLLIINDPLEKLRNEDGRLLVDDGKFVQNNSKNAPKMGAVERYDFKFEPSRLRIDATHLPIQFFYPRDVGVTFDETAGISQLGKTHIEMTSKEHTELFKRLQNPDFSRFQRRKRVFWVLEDLEHPNENKSIPIEEMDETQLCWNQDIQYLGEIKSSKLSERLTRYMKDEPVEWIINEKRRFEYINEITSTDRLVHLDRLLRNLDAHFQVLSSC | not soluble |
| MNERKKSIDELLSDLGVLEEAPVEVELKESGTPEAQGDPRAFLEEFLGGLLLLLDPGHRLEVRVEGETLKAEVKGGDLGRFIGKEGRTLRAVEHLARVVLARRFGTGYRLVLDAAGYRSRAEARIRRLAEEAALTVAMTGEPLHLPPMPPGERRIVHMLLKNHPRVTTESQGEGEERHVVVYPRREAQG | soluble |
| RVSNEFPPREYIATVYNRICNYLQIGEGEGFERSFDFDIDAFCRNFRMFPTQVLAAIRILDVAGIWEYREEKTRSRLTIQVQRDELYRMRSEQASDSVLTALMRTYDGLFADYVSIVESELAEKTGLSVDQVYQQLLLLNKAGIVNYIPQKNLPRIYFLTRREDAELLQIPRAAYEDRRDRLKARIDQSLRYIEEENTCRSRMLLAYFGEEQSHNCKLCDVCLRRKDGELHHHEVDDLLHFLEQRLTEETPYVLIADICRELHHHPDVVLKAIRFVMKESWQYSTDGDTVFLTHKLPGGLNL | not soluble |
| MSLAEINKNEVDIVIGALNADLTQFLTSWRPFFSGFHLIVVKDPELKEELNIPEGFDVDVYSKTDMEKVVGASNSTMFSGYSCRYFGYLVSKKKYIVSIDDDCVPAKDPKGFLVDAVTQHVINLENPATPLFFNTLYDPYCEGADFVRGYPFSLRSGVPCAASCGLWLNLADLDAPTQALKTEKRNTAYVDAVMTVPAKAMLPISGINIAFNRELVGPALVPALRLAGEGKVRWETLEDVWCGMCLKHISDHLGYGVKTGLPYVWRNERGDAVESLRKKWEGMKLMEKSVPFFDSLKLPETALKVEDCVIELAKAVKEQLGSDDPAFTQAADAMVKWVQLWNSVNSSA | soluble |
| MGSDKIHHHHHHMIQQKVRVGLLGVGLDTYWGQFEGLLPRLLTYQDEIAAKIEAMDVQVINTGMVDSPLKANECVLQLKQADVELVFLFISTYALSSTILPVAQQVGKPIIILNIQPASAIDYQKLNSMGDRGRMTGEWLAHCQACSVPEFASVLNRAGVRYDIITGYLSEDYVWEEIASWVDAVRVMYGMRTSRLGVLGHYYCGMLDVYTDLMKQSAVFGTHIELLEMCELKAYREEVSDGELKRKLDEFYDKFNVEASCSSEELVRAARTSVALDKLVNVHQLGAMAYYYEGFCGNDYENIVTSVIAGNTLLTGYGIPVAGECEVKNAQAMKIMSLLKAGGSFSEFYAMDFKDDIVLLGHDGPAHFAIAEEKVKLVPLPLYHGKPGKGLSIQMSVKPGDVTLLSVCEGRDGVFLLAAEGEAVQGETLHIGNTNSRYRFPCGARRFMDQWSKAGPSHHCAIGIGHKVSELKKLAFLLDIPIIVVE | not soluble |
| MSLTTLNIGLILPDVLGTYGDDGNALVLRQRARMRGINAEIQRVTLDDAVPSTLDLYCLGGGEDTAQILATEHLTKDGGLQTAAAAGRPIFAVCAGLQVLGDSFRAAGRVIDGLGLIDATTVSLQKRAIGEVETTPTRAGFTAELTERLTGFENHMGATLLGPDAEPLGRVVRGEGNTDVWAASENTDDQRQQFAEGAVQGSIIATYMHGPALARNPQLADLMLAKAMGVALKEGHHHHHH | not soluble |
| MEAEPLETEQDEWRKERMRVLDEWCEIELKGADALKMDVTREPGSPTVAVAPETSLQDLYPLLIATSSSNAPPSATPTDDVTDPEVQVVSRESIDNRSTFNRIIDVCLCRPVKSQMGPKAYTDKTLILKLAQIPYDHENGTHWLLLSDYFNNVSRSLMTSSEYSHVTNPSRVGAHWVTVGFQSATPHTDFRGCGVLGLLQMHTFTQRVPANLLRAIVLLATTEPNDFPLAVVSINITSILLTQLKKGALDNFGNEIEGLYPFFSALHASAMCRFCSIYKSQKCTLANTQTIFSEITRQLEKSPLSLIMLLNPTNDELINTLL | not soluble |
| MGSDKIHHHHHHMRIAFSTLGCPQAPLHEVTALAREHRVDGLELRIHDDGIVSDHMDRSRREQVRASISRTGLTVLSLGSYIKVCQPGPDETVVRQLRTALELAADVGAEAVRVFPGAGTGPTTDHYGIAVTELDMRGSSRLAAAAPIAERLGLRLLLETHDSHPRGVDISRILAPFRAEDPVGAIWDVMHPWRFGEDPVQTAHQLGSHYQYVQFKDATMDRQTGNLTMTLPGAGDIPLQRILDLVVARTPTTEEPWISLEWEKAWHPELPGLPEALIAFKTLLGRPESDAALSGSPRRPGSAAGARRNGTL | not soluble |
| MFCDRIRGSLTKDKERIMSSKNYIDVIIDGKIYNIGGFESEAYLQKVASYINNMIAEFKQNENYRVQKVDMQRILLEINIANDYFKAKKQADLLQNDIELKEKEVYDLKHELIVSDSKAETATKELNEALEKIESLEKEIIKLQTELEK | not soluble |
| MLKKRFYILLFFCLLLGGNVNSSTVDKGDNNAPFENKRTETDYLPIADPFVMLYNNKYYAYGTGGTVNEGFACFSSDDLKNWKRERQALSADDSYGKWGFWAPEVYYIQSKKKFYMFYSVEEHICVATSDSPVGPFRQESKQPIWEEKSIDTSLFIDDDGTPYLYFVRFTDGNVIWVAQMTDDLMKIKKETLSECIKAEEPWELLQAKVAEGPSVLKKKGMYYLIYSANHYQNKGYGVGYATSKSPMGPWTKYDKNPLLQGDESTGLVGTGHGAPFQCKDGSWKYIFHAHWNKEKIHPRTSYFKDFTISKQGVVSITGKVIKPKVIK | not soluble |
| MKITKISLFQKVLPYCSGSLAIGDLSENRTKPFDTFTSSVVVINTDQGVSGVGESCPWVSDNLNEKEVYDCLASRLLGEDPHNLKGIVKNMDAVIQGHTFAKSAIDMACWDIKAKDNGVPLFELLGGMLTDGAPLYRCVMEQEHDKIKAEVEQYRASGYKYFKLRVGIEPDKDIELIKFAANLAEPGEIVYADANCRWTLSEALEVVKAIEGLDVMIEQPCLSYEDCIKVRENTGLLIKLDELVTDLTMAKKIVRDHTADVVCIKMSRVGGLSKALEIRDFFVKKGIKVVTECMMGGEIVSAAVSHFSASTPSEFLFNTGDLHAYVTASTGNISPPTLNGRIYCNDSPGLGVEPDLTSLGTPIAIYQN | soluble |

Source: the DeepSol protein solubility set
